Assay results as given in the supplement of paper PMC9732359.
± gives the uncertainty stated by the source.

Test: protein stability index of a GFP-peptide fusion (yeast GPS) (PSI 1-4); higher = more stable; sorted into four equal gates, so the index is relative within each strain
In short: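 Tiled 17-residue peptides from yeast proteins were fused downstream of GFP on a plasmid that also expresses Cherry, and the pooled library was carried in yeast. Mid-log cultures grown in leucine-free medium were sorted into four equal gates by GFP/Cherry fluorescence ratio. Plasmids from each gate were PCR-amplified and Illumina-sequenced, and reads were assigned to strains by barcodes. Each peptide's protein stability index is the sum, over gates, of the gate's read frequency multiplied by its gate number.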

Q: Which results are given for PKNIEPPLTSQYSTRHD [SWI3]?
A: protein stability index (doa10∆): 3.07 ± 0.048; protein stability index (pdr5∆): 3.02 ± 0.059; protein stability index (san1∆): 3.04 ± 0.041; protein stability index (ubr1∆): 3.03 ± 0.042

Q: For PKNQQYRAFGSIWQVKD [MED7], which protein stability index (doa10∆) is on record?
A: 2.45 ± 0.084

Q: And the protein stability index (pdr5∆)?
A: 2.7 ± 0.082

Q: And the protein stability index (san1∆)?
A: 2.54 ± 0.08

Q: And the protein stability index (ubr1∆)?
A: 2.64 ± 0.063

Q: What does the source list for PKNSKTPQSKGFVRNSF [RPO31]?
A: protein stability index (doa10∆): 3.17 ± 0.15; protein stability index (pdr5∆): 3.03 ± 0.14; protein stability index (san1∆): 2.92 ± 0.12; protein stability index (ubr1∆): 3.18 ± 0.068

Q: Which protein stability index (doa10∆) does the source give for PKNYSLHGLRSFYDAIF [YJL039C/NUP192] here?
A: 2.53 ± 0.042

Q: What about the protein stability index (pdr5∆) of the same sequence?
A: 2.61 ± 0.041

Q: And the protein stability index (san1∆)?
A: 2.37 ± 0.043

Q: What about the protein stability index (ubr1∆) of the same sequence?
A: 2.4 ± 0.041

Q: Which protein stability index (doa10∆) does the source give for PKSTKGKILTIKQQQQQ [YML103C/NUP188] here?
A: 2.39 ± 0.038

Q: What about the protein stability index (pdr5∆) of the same sequence?
A: 2.59 ± 0.046

Q: What about the protein stability index (san1∆) of the same sequence?
A: 2.42 ± 0.062

Q: What about the protein stability index (ubr1∆) of the same sequence?
A: 2.52 ± 0.04

Q: Which protein stability index (doa10∆) does the source give for PKYIDELKTRDATNTSY [SWP82] here?
A: 2.68 ± 0.095

Q: What about the protein stability index (pdr5∆) of the same sequence?
A: 3.12 ± 0.072

Q: And the protein stability index (san1∆)?
A: 2.58 ± 0.079

Q: What about the protein stability index (ubr1∆) of the same sequence?
A: 2.94 ± 0.05

Q: Which protein stability index (ubr1∆) does the source give for PLDDAGTIGWDLGITEK [MCD1] here?
A: 3.05 ± 0.16

Q: For PLLARKQFVVDVLHPNR [RPS24A], which protein stability index (doa10∆) is on record?
A: 1.58 ± 0.14

Q: What about the protein stability index (pdr5∆) of the same sequence?
A: 1.83 ± 0.072

Q: What about the protein stability index (san1∆) of the same sequence?
A: 1.72 ± 0.12

Q: What about the protein stability index (ubr1∆) of the same sequence?
A: 1.62 ± 0.071

Q: With PLLESFITFSLDDWISI [IRR1] as the sequence, how does the protein stability index (doa10∆) read?
A: 3.04 ± 0.078

Q: What about the protein stability index (pdr5∆) of the same sequence?
A: 2.46 ± 0.063

Q: What about the protein stability index (san1∆) of the same sequence?
A: 2.5 ± 0.054

Q: What about the protein stability index (ubr1∆) of the same sequence?
A: 2.54 ± 0.052

Q: What does the source list for PLLPIVEELMKKRRGSR [SNU114]?
A: protein stability index (doa10∆): 2.4 ± 0.11; protein stability index (pdr5∆): 2.79 ± 0.12; protein stability index (san1∆): 2.87 ± 0.074; protein stability index (ubr1∆): 2.83 ± 0.13

Q: With PLLSLDVTPISMFGSDQ [RPN4] as the sequence, how does the protein stability index (doa10∆) read?
A: 2.75 ± 0.12

Q: What about the protein stability index (pdr5∆) of the same sequence?
A: 2.79 ± 0.18

Q: What about the protein stability index (san1∆) of the same sequence?
A: 3.12 ± 0.13

Q: And the protein stability index (ubr1∆)?
A: 3.18 ± 0.17

Q: What does the source list for PLLYNSLCTVWKPNPSY [SRB5]?
A: protein stability index (doa10∆): 1.99 ± 0.11; protein stability index (pdr5∆): 1.68 ± 0.062; protein stability index (san1∆): 2.21 ± 0.11; protein stability index (ubr1∆): 2.13 ± 0.1

Q: Which protein stability index (doa10∆) does the source give for PLPPRIDPSVTMMTVEE [RPT1] here?
A: 2.16 ± 0.08

Q: What about the protein stability index (pdr5∆) of the same sequence?
A: 1.9 ± 0.076

Q: What about the protein stability index (san1∆) of the same sequence?
A: 2.12 ± 0.17

Q: What about the protein stability index (ubr1∆) of the same sequence?
A: 1.88 ± 0.062

Q: Which protein stability index (doa10∆) does the source give for PLPTPFKVDDNVDFPSA [RPN2] here?
A: 2.94 ± 0.054

Q: What about the protein stability index (pdr5∆) of the same sequence?
A: 2.75 ± 0.043

Q: What about the protein stability index (san1∆) of the same sequence?
A: 2.6 ± 0.074

Q: And the protein stability index (ubr1∆)?
A: 2.63 ± 0.052

Q: What does the source list for PLSQDELISLRKILESS [YIL149C/MLP2]?
A: protein stability index (doa10∆): 2.45 ± 0.077; protein stability index (pdr5∆): 2.67 ± 0.067; protein stability index (san1∆): 2.15 ± 0.076; protein stability index (ubr1∆): 2.32 ± 0.093

Q: Which results are given for PMVSVMKMDKSPTESYS [RPT2]?
A: protein stability index (doa10∆): 1.64 ± 0.11; protein stability index (pdr5∆): 1.57 ± 0.088; protein stability index (san1∆): 1.11 ± 0.2; protein stability index (ubr1∆): 1.71 ± 0.093

Q: With PNEFEIQLSTVNRQSPL [RGR1] as the sequence, how does the protein stability index (doa10∆) read?
A: 2.19 ± 0.063

Q: What about the protein stability index (pdr5∆) of the same sequence?
A: 2.65 ± 0.057

Q: And the protein stability index (san1∆)?
A: 2.69 ± 0.054

Q: And the protein stability index (ubr1∆)?
A: 2.45 ± 0.055

Q: What does the source list for PNELSQILTVDPKTSLR [RPC82]?
A: protein stability index (doa10∆): 2.2 ± 0.069; protein stability index (pdr5∆): 1.91 ± 0.059; protein stability index (san1∆): 2.33 ± 0.067; protein stability index (ubr1∆): 2.45 ± 0.053

Q: For PNPNNMKTVQSPMGAQP [GAL11], which protein stability index (doa10∆) is on record?
A: 3.21 ± 0.13

Q: What about the protein stability index (pdr5∆) of the same sequence?
A: 2.96 ± 0.095

Q: What about the protein stability index (san1∆) of the same sequence?
A: 2.96 ± 0.12

Q: And the protein stability index (ubr1∆)?
A: 2.94 ± 0.075

Q: With PNRIKLSKEVPFSYLID [SRB5] as the sequence, how does the protein stability index (doa10∆) read?
A: 2.44 ± 0.062

Q: And the protein stability index (pdr5∆)?
A: 2.15 ± 0.058

Q: What about the protein stability index (san1∆) of the same sequence?
A: 1.98 ± 0.1

Q: What about the protein stability index (ubr1∆) of the same sequence?
A: 2.12 ± 0.06

Q: What does the source list for PNSSANNNPLQQQSSQN [GAL11]?
A: protein stability index (doa10∆): 2.99 ± 0.051; protein stability index (pdr5∆): 3.03 ± 0.045; protein stability index (san1∆): 3.02 ± 0.033; protein stability index (ubr1∆): 2.98 ± 0.034

Q: For PPAYALLGSCQTDGMGL [RPC25], which protein stability index (doa10∆) is on record?
A: 2.15 ± 0.11

Q: What about the protein stability index (pdr5∆) of the same sequence?
A: 2.57 ± 0.15

Q: And the protein stability index (san1∆)?
A: 2.22 ± 0.19

Q: And the protein stability index (ubr1∆)?
A: 2.41 ± 0.13

Q: Which protein stability index (doa10∆) does the source give for PPPAPHNLHPQIGQVPL [SNF5] here?
A: 2.96 ± 0.059

Q: What about the protein stability index (pdr5∆) of the same sequence?
A: 2.94 ± 0.053

Q: And the protein stability index (san1∆)?
A: 2.8 ± 0.045

Q: And the protein stability index (ubr1∆)?
A: 3.01 ± 0.042

Q: Which results are given for PQDILSKLYLLLARVFE [SNF11]?
A: protein stability index (doa10∆): 2.14 ± 0.044; protein stability index (pdr5∆): 2.37 ± 0.052; protein stability index (san1∆): 2.2 ± 0.069; protein stability index (ubr1∆): 2.4 ± 0.041

Q: Which protein stability index (doa10∆) does the source give for PQENDLESKMSEVGDAF [SMC3] here?
A: 2.73 ± 0.2

Q: And the protein stability index (pdr5∆)?
A: 3.36 ± 0.2

Q: What about the protein stability index (san1∆) of the same sequence?
A: 3.43 ± 0.11

Q: What about the protein stability index (ubr1∆) of the same sequence?
A: 2.98 ± 0.22

Q: Which results are given for PQIRQEIEQLDQYIQKQ [YGL172W/NUP49]?
A: protein stability index (doa10∆): 2.7 ± 0.061; protein stability index (pdr5∆): 2.76 ± 0.046; protein stability index (san1∆): 2.54 ± 0.054; protein stability index (ubr1∆): 2.78 ± 0.049

Q: Which protein stability index (pdr5∆) does the source give for PQKNVKIQVVDRHIGCV [PRE10] here?
A: 2.72 ± 0.27
